Experimental data as given in the supplement of paper PMC11865577.

Legend:
Assay in all cases: pull-down binding Z-score (relative to library population); higher = stronger binding
Conditions in all cases: RNA library: Library-2
[1] = tested on: TO-3-N3-2 (biotin conjugate)
In short: (§1)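 Binding is given as a Z-score against the library mean and standard deviation, calculated after removing the beads-only signal and averaging barcoded replicate probes without their highest and lowest values. Cy5- or Cy3-end-labelled RNA library (1 μg) was heat-folded in phosphate/NaCl/KCl buffer and incubated 60 min at 25 °C with streptavidin beads bearing 100 pmol of biotin-conjugated small molecule. After three washes, RNA eluted in hot SDS was hybridised to a DNA barcode microarray for 20 h at 55.5 °C.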

[2] = tested on: TO-N3-2 (biotin conjugate)
In short: as §1

[3] = tested on: TO-3-N3 (biotin conjugate)
In short: as §1

TO-N3 (biotin conjugate) = tested on: TO-N3 (biotin conjugate)
In short: as §1

Sequence	pull-down binding Z-score [1]	pull-down binding Z-score [2]	pull-down binding Z-score [3]	pull-down binding Z-score (TO-N3 (biotin conjugate))
GGAAUGGAUCCC [IAV_invivo_NP_5_Motif_9+IAV_invivo_NP_5_Motif_9]	-0.0967	-0.367	-0.119	-0.323
GCGCGGCCAGAAACUGGCGGCGC [mismatch-GG]	-0.302	-0.598	-0.0922	-0.309
CAUCAAAACCAAGCAAGAGGUCAUUUAUUGAAGAUCUACUUUUCAACAAAGUGACACUUGCAGAUG [DMSMaPseq_invitro_SARS-CoV-2_Motif_426]	-0.0955	-0.851	-0.806	-0.92
GGUGGUAUUGUAGCUAUCGUAGUAACAUGCCUUGCC	-0.0179	0.0259	0.56	0.693
CUUUACCAACCACCACAAACCUCUAUCACCUCAGCUGUUUUGCAGAGUGGUUUUAGAAAAAUGGCAUUCCCAUCUGGUAAAG	0.13	-0.0806	-0.0485	-0.0807
GCAAGUUGAAUCUGAUGAUUACAUAGCUACUAAUGGACCACUUAAAGUGGGUGGUAGUUGUGUUUUAAGCGGACACAAUCUUGC	-0.436	-0.558	-0.696	-0.805
GGAACCUAGUAAUAGGUUUCC [DMSMaPseq_invitro_SARS-CoV-2_Motif_479]	-0.0496	-0.779	0.7	0.439
GCCCUUAUAGGGC [IAV_invivo_NA_6_Motif_5+IAV_invivo_NA_6_Motif_5]	-0.38	-1.22	0.164	-0.247
ACGUGGCUUUGGAGACUCCGUGGAGGAGGUCUUAUCAGAGGCACGU	0.0243	0.34	-0.105	0.0366
AAGCUGAUGAGUACGAACUUAUGUACUCAUUCGUUU	-0.284	-0.895	-0.634	-0.877
GAUUAUGUGUACCUUCCUUACCCAGAUCCAUCAAGAAUCCUAGGGGCCGGCUGUUUUGUAGAUGAUAUCGUAAAAACAGAUGGUACACUUAUGAUU [SHAPE_invitro_SARS-CoV-2_Multi_44_ComplexLevel_1]	0.262	0.0805	0.359	0.661
UACUGGUUCUAUACCUUGUA [SARS-CoV-2-Conserved-Structured-4_Interval-7011-7130_Motif_3]	-0.095	-0.722	0.217	-0.0242
AAUGUUUUAUUCUCUACAGUGUUCCCACUUACAAGUUUUGGACCACUAGUGAGAAAAAUAUU [DMSMaPseq_invitro_SARS-CoV-2_Motif_260]	-0.434	-0.866	-0.786	-0.882
GGUAAUUAUACAGUUUCCUGUUUACCUUUUACAAUUAAUUGCC [SHAPE_invitro_SARS-CoV-2_Motif_513]	0.0742	-1.1	-0.718	-1.04
ACAUUACACCAUGU [SHAPE_invivo_SARS-CoV-2_Motif_439]	-0.6	-0.865	-0.779	-1.07
GCGCUGCCAGAAACUGGCUUAGCGC [bulge-UU]	-0.0172	0.338	0.63	0.691
GUACAUGGGCACACUUUCUUAUGAACAAUUUAAGAAAGGUGUUCAGAUACCUUGUAC [SHAPE_invitro_SARS-CoV-2_Motif_110]	-0.44	-1.11	-0.767	-1.06
ACCAACCACCACAAACCUCUAUCACCUCAGCUGUUUUGCAGAGUGGUUUUAGAAAAAUGGCAUUCCCAUCUGGU	0.384	0.456	0.0884	0.386
CUCUUGAGUGCAUUAAAGACCUUCUAGCACGUGCUGGUAAAGCUUCAUGCACUUUGUCCGAACAACUGGACUUUAUUGACACUAAGAG [SHAPE_invitro_SARS-CoV-2_Multi_69_ComplexLevel_1]	-0.197	0.585	-0.706	-0.515
CAGAGUACUCAAUGGUCUUUG	-0.543	-0.606	-0.33	-0.395
GCAUACAGUCGCUACAGGAUUGGCAACUAUAAAUUAAACACAGACCAUUCCAGUAGCAGUGACAAUAUUGC [SHAPE_invivo_SARS-CoV-2_Motif_513]	0.365	0.259	-0.0312	0.116
CUCAAACCCGUCCUUGAUUGGCUUGAAGAGAAGUUUAAGGAAGGUGUAGAG [DMSMaPseq_invitro_SARS-CoV-2_Motif_41]	-0.174	-0.0884	-0.564	-0.455
GGGUAGUGGUGAGCAUUGACC [IAV_invivo_PB2_1_Motif_22+IAV_invivo_PB2_1_Motif_22]	0.601	0.804	1.17	1.28

Sequence	pull-down binding Z-score [1]	pull-down binding Z-score [2]	pull-down binding Z-score [3]	pull-down binding Z-score (TO-N3 (biotin conjugate))
UCUGACAGUCCAUGUGAGUCUCAUGGAAAACAAGUAGUGUCAGA [SHAPE_invivo_SARS-CoV-2_Motif_364]	-0.0689	-0.73	-0.582	-0.868
UCAGCUGGUUUUCCAUUUAAUAAAUGGGGUAAGGCUAGA	-0.448	-0.851	-0.104	-0.355
GGUUUGUUACAGACACACC [SHAPE_invivo_SARS-CoV-2_Motif_243]	-0.488	-0.785	-0.427	-0.748
GCCAUUUGUCAUGAUGGAAAAGCACACUUUCCUCGUGAAGGUGUCUUUGUUUCAAAUGGC	-0.592	-0.949	-1.16	-1.39
GGUGGCAAACCUUGUAUCAAAGUAGCCACU [SHAPE_invitro_SARS-CoV-2_Motif_216]	-0.373	-0.605	-0.569	-0.798
GACUCUGAGCCAGUGCUCAAAGGAGUC	-0.434	-0.0814	-0.523	-0.677
CCUUGCACCUAAUAUGAUGGUAACAAACAAUACCUUCACACUCAAAGGCGGUGCACCAACAAAGGUUACUUUUGGUGAUGACACUGUGAUAGAAGUGCAAGG [SHAPE_invivo_SARS-CoV-2_Multi_7_ComplexLevel_1]	-0.454	-0.526	-0.657	-0.857
CCUCGUACAAAAUUUUCAAGAUCGAAAAGGGG [IAV_invivo_NA_6_Motif_10+IAV_invivo_NA_6_Motif_10]	0.159	-0.605	-0.278	-0.362
GUCAAAGUGACUAUUGAC [SHAPE_invitro_SARS-CoV-2_Motif_373]	-0.444	-0.385	-0.385	-0.53
GUUCUUGUAUGUGAGAAC [IAV_invivo_PA_3_Motif_23+IAV_invivo_PA_3_Motif_23]	-0.614	-1.09	-0.598	-0.949
GCUGGUGCACUUGCCAGU [IAV_invivo_M1_M2_7_Motif_8+IAV_invivo_M1_M2_7_Motif_8]	-0.545	-0.0123	-0.522	-0.408
GGAUUUCUGGACAUUUGGACAUAUAAUGCAGAAUUGUUAGUUCUACUGGAAAAUGAAAGGACUCUGGAUUUCC [IAV_invivo_HA_4_Motif_17+IAV_invivo_HA_4_Motif_17]	0.4	0.395	-0.659	-0.198
GGGCUAGAUUCCC [DMSMaPseq_invitro_SARS-CoV-2_Motif_228]	-0.264	-0.533	-0.623	-0.867
UGUGGUAAACAAGCUACA	-0.468	-0.906	-0.644	-0.766
GUUGCGUCACCAAAUGAAUGCAAC	-0.49	-1.2	-0.989	-1.3
GUCUCUAUAGAAAUAGAGAU	-0.397	-1.36	0.213	-0.156
GCUAAAGAUACUACUGAAGCCUUUGAAAAAAUGGUUUCACUACUUUCUGUUUUGC [SHAPE_invitro_SARS-CoV-2_Motif_217]	0.0624	-0.245	0.0938	0.166
GGUACAUUUACUUGUGCU [SHAPE_invivo_SARS-CoV-2_Motif_118]	-0.344	-0.222	0.677	0.678
AAACGAACUAAAUAUUAUAUUAGUUUUUCUGUUU	0.491	-0.324	-0.375	-0.211
GGAUGAGAGAACUCAUCC [IAV_invivo_NP_5_Motif_6+IAV_invivo_NP_5_Motif_6]	-0.323	-0.939	-0.302	-0.724
UGUAAGCACAAGCUGAUGAGUACGAACUUAUGUACUCAUUCGUUUCGGAAGAGACAGGUACGUUAAUAGUUAAUAGCGUACUUCUUUUUCUUGCUUUCG [DMSMaPseq_invitro_SARS-CoV-2_Multi_80_ComplexLevel_1]	-0.529	-0.373	-1.03	-0.883
CAGGUAUGAAUGAUACUUACCUG [U1snRNP5ss-11]	0.369	0.225	1.06	0.898
GGGGCUGAGAAACCAAAGUUUC [IAV_invivo_PA_3_Motif_3+IAV_invivo_PA_3_Motif_3]	0.214	0.822	0.484	0.788
